Experimental findings from patent publication US5502166, “NMDH receptor proteins and genes encoding the same” (Mitsubishi Chemical Corporation, dated 1996) are described below.

This experiment deals with ζ1 NMDA type glutamate receptor subunit (mouse, wild type) (mouse, UniProt P35438). Description: cell-based or functional assay.

B1: glutamate receptor ε3 subunit (mouse NMDA type glutamate receptor channel subunit) (receptor)
chain: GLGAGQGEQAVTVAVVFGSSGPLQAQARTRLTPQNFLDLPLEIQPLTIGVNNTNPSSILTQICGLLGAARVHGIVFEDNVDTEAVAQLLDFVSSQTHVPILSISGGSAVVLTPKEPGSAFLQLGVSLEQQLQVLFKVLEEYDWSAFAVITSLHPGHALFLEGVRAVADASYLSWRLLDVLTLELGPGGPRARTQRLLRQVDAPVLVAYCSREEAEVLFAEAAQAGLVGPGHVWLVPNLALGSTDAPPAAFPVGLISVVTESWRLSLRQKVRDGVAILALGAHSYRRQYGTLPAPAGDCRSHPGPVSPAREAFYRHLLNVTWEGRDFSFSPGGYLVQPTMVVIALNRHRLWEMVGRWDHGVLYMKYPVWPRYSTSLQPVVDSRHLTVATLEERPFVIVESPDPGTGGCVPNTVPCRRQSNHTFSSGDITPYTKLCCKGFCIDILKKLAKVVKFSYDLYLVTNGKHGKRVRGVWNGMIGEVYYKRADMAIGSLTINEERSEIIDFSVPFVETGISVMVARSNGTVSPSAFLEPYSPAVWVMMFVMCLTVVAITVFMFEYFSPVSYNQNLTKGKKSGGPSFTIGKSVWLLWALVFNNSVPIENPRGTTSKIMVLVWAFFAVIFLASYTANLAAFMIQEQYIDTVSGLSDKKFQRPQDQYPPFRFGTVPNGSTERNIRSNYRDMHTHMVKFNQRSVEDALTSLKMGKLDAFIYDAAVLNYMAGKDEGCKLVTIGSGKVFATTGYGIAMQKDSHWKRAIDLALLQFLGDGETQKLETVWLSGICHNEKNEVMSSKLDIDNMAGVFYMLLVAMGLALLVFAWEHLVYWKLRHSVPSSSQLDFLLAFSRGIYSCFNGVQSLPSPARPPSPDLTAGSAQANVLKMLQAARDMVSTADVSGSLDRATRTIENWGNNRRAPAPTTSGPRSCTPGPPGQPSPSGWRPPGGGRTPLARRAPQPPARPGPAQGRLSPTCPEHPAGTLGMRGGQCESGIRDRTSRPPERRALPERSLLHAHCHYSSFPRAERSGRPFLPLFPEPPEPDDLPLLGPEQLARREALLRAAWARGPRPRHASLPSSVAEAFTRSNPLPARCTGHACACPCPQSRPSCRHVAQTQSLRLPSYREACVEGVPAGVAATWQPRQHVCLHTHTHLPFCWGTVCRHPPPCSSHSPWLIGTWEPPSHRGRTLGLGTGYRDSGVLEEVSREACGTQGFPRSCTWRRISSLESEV
On to B1, for which the “inward current at a membrane potential of -70 mV, Xenopus oocytes, 10 µM L-glutamate and 10 µM glycine, frog standard Ringer's solution” value is 191 nA.
